The target in the data set is His221 (UniProt position 221, RKPFYHAFSFM). Description: electrophysiology. The conditions noted are these: Symmetrical high K+. Bath: standard solution with Na+ replaced equimolarly by K+ (140 mM extracellular K+). Pipette: 140 mM KCl.; 10 mM Hepes/Tris; MES for pH 5.0-6.5, AMPSO for pH 8.5-9.0, CAPS for pH 9.5-11.0; pHo gating in high symmetrical K+ (needed to restore currents of the double mutant).

The term pKa denotes the pH at which an ionisable group is half protonated. A low value points to a stronger acid or weaker base. In the case of “TASK-3 (K2P9.1, KCNK9) H98N/V221H double mutant (Cavia porcellus; H98N;V221H)”, the pKa is 6.86±0.11.

Source of the values: article PMC3026807.
